Source: the supplement of paper PMC7125110
± gives the standard error. Fewer inactive variants are shown than the library holds.

B1: glmS ribozyme (parent)
chain: AUAAAAGCGCCAGAACUACAGAAAUGUAGUUGACGAGGAGGAGGUUUAUCGAAUUUUCGGCGGAUGCCUCCAAA

Variants of: B1
Experiment: self-cleavage kobs at 2500 uM GlcN6P; higher = faster cleavage; RNA array
Conditions: with glucosamine-6-phosphate
Method in brief: (§1)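 Using a hybridised Cy3 probe at 37 °C, barcoded ribozyme variants transcribed in situ by E. coli RNA polymerase on sequenced MiSeq chips were monitored across tiles imaged over ~14 h. The flow contained glucosamine-6-phosphate from 40 μM to 10 mM in HEPES/KCl/Mg(OAc)2 buffer. Signals were normalised to baseline and to non-cleaving reference variants before per-tile medians were fit to one- or two-exponential decays to yield kobs. Weighted Michaelis–Menten fits across concentrations gave kcat and KM.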

Point of comparison: C10G A14U G29C U49A A52G C67G, “self-cleavage kobs at 2500 uM GlcN6P” value 7.89e-05 ± 2.3e-05 s⁻¹. Against it:
- C8A C58A A64C — lower, < 1e-05 s⁻¹
- G9U A15C G32C — lower, < 1e-05 s⁻¹
- G7A G51U U54G G63A — lower, < 1e-05 s⁻¹
- G7A C8G G63U — lower, < 1e-05 s⁻¹
- G9U U30A G38A G40C U56A C70A — lower, < 1e-05 s⁻¹
- G9A A14G G41U — lower, < 1e-05 s⁻¹
- C8U C34U G37A U54C — lower, < 1e-05 s⁻¹
- C11U A12G A15G — 4.1-fold higher, 0.000326 ± 8.5e-05 s⁻¹
- G9U A14G C61A A64G C70G — within error, 6.76e-05 ± 2.1e-05 s⁻¹
- G9C G37U C58U G62U A64U C70G — lower, < 1e-05 s⁻¹
- G7C G35C A48C C58U — lower, < 1e-05 s⁻¹
- C10U G35U G43C — lower, < 1e-05 s⁻¹
- C10G A39G G66A C67U C71G — within error, 7e-05 ± 3.1e-05 s⁻¹
- C11G U30C G37U — lower, < 1e-05 s⁻¹
- C11G G13C C50A A53G U55A — lower, < 1e-05 s⁻¹
- A6U G32U U57G — lower, < 1e-05 s⁻¹
- G7A G9U — lower, < 1e-05 s⁻¹
- A6U G44A U56A — lower, < 1e-05 s⁻¹
- C10U A14C A15U G41A — lower, < 1e-05 s⁻¹
- C10G G13C A42U A52C — lower, < 1e-05 s⁻¹
- G7U C11G G13A A14U G32U A33C G37A G40A U47C — lower, < 1e-05 s⁻¹
- C10G U30G A39U G44C A48C — lower, < 1e-05 s⁻¹
- C8A G13C A36G U56G C70U — lower, < 1e-05 s⁻¹
- C8U G51U U57C C58A — lower, < 1e-05 s⁻¹
- A6U U47A U57C — lower, < 1e-05 s⁻¹
- G7A A39C U54G U57A C58U G66U — lower, < 1e-05 s⁻¹
- C11U G60A G62U C67G — lower, < 1e-05 s⁻¹
- C8G G35A G43C U69G — lower, < 1e-05 s⁻¹
- G9C G32C C70A — lower, < 1e-05 s⁻¹
- G7A C10U G35U G43U — lower, < 1e-05 s⁻¹
- C10A C50U C68U — within error, 6.13e-05 ± 2.7e-05 s⁻¹
- C8G G9A A14U U31G A39C U47A A64G C70U — lower, < 1e-05 s⁻¹
- C10U A33U G41U U49C G62C — lower, < 1e-05 s⁻¹
- G9A A12G U54A C58G C61G C70U — 4.5-fold higher, 0.000354 ± 0.00012 s⁻¹
- C10G A14U G35U G60C — lower, < 1e-05 s⁻¹
- C10G G44U C71A — lower, < 1e-05 s⁻¹
- G9A G51U U56G G63C — lower, < 1e-05 s⁻¹
- C8U A15U U31C A36G U46A A52U C58A C67U C70U — lower, < 1e-05 s⁻¹
- C11U A12C G32A G41A C68A — lower, < 1e-05 s⁻¹
- G9U G63C G66U C70A — lower, < 1e-05 s⁻¹
- G9C U49A U54A C67A — lower, < 1e-05 s⁻¹
- C10A U47C G62U — lower, < 1e-05 s⁻¹
- C10A C11U C70A — within error, 0.000126 ± 4.3e-05 s⁻¹
- C11G G13A G41A A52U A53C G63C C68G — lower, < 1e-05 s⁻¹
- C8A A12U G44U — lower, < 1e-05 s⁻¹
- C11G G37U A53C — lower, < 1e-05 s⁻¹
- G9A A14C A15G G35C A39G A52C A53G — lower, < 1e-05 s⁻¹
- G7U G35U C50U — lower, < 1e-05 s⁻¹
- C11U G44U C67G — 54-fold higher, 0.00425 ± 0.0019 s⁻¹
- C11G G26U G43C — lower, < 1e-05 s⁻¹
- G9C G13U A48G — lower, < 1e-05 s⁻¹
- G7U C16G A48U — lower, < 1e-05 s⁻¹
- C11U A33U G59A — 2.1-fold higher, 0.000169 ± 6.1e-05 s⁻¹
- C10U C11A C70A — within error, 7.8e-05 ± 2.7e-05 s⁻¹
- A12C C16U U31G G41U G43U — lower, < 1e-05 s⁻¹
- G9C A39U U45C C58U — lower, < 1e-05 s⁻¹
- A6U G9A C61A — lower, < 1e-05 s⁻¹
- G7A G13A U30C C34U C70U — lower, < 1e-05 s⁻¹
- C11A U54A U55G — within error, 0.000135 ± 4.1e-05 s⁻¹
- C11U A14G A33G C68A C71A — 8.7-fold higher, 0.000684 ± 0.00034 s⁻¹
- C8G G32A U54G — lower, < 1e-05 s⁻¹
- C11A C16U A23C A39G U54C C58U — lower, < 1e-05 s⁻¹
- G9C A15G U45G — lower, < 1e-05 s⁻¹
- C11G A52U C68U — lower, < 1e-05 s⁻¹
- C8U G9C C11G A14C U45G C50G C71G — lower, < 1e-05 s⁻¹
- G7U G9C U47A U56G G59U C70A — lower, < 1e-05 s⁻¹
- G7A A12U U31G C70A — lower, < 1e-05 s⁻¹
- C10A G62C C68A — 3-fold higher, 0.00024 ± 0.00011 s⁻¹
- C8U C11U A39C G51A G62C — lower, < 1e-05 s⁻¹
- C11U U54A C70G — within error, 9.38e-05 ± 2.4e-05 s⁻¹
- C8A G13C U46G U56A U69C C70G — lower, < 1e-05 s⁻¹
- C8G A33U U56G G59U — lower, < 1e-05 s⁻¹
- G9A C34A U49G — lower, < 1e-05 s⁻¹
- G7U C8G U49A — lower, < 1e-05 s⁻¹
- C11A G35U C58G — lower, < 1e-05 s⁻¹
- C8U C16G G29C — lower, < 1e-05 s⁻¹
- C8A U46G C61A U65C — lower, < 1e-05 s⁻¹
- G9U G40A G60U — lower, < 1e-05 s⁻¹
- C11A G29U A33C G63C — lower, < 1e-05 s⁻¹
- G9U G29U U31A U46A — lower, < 1e-05 s⁻¹
- A6U U31G G41U — lower, < 1e-05 s⁻¹

Variants of: B1
Experiment: self-cleavage kobs at 10000 uM GlcN6P; higher = faster cleavage; RNA array
Conditions: with glucosamine-6-phosphate
Method in brief: as §1

Point of comparison: C11U A12G A15G, “self-cleavage kobs at 10000 uM GlcN6P” value 0.000749 ± 0.00017 s⁻¹. Against it:
- G9U U30A G38A G40C U56A C70A — lower, < 1e-05 s⁻¹
- C10A U47C G62U — lower, < 1e-05 s⁻¹
- C11U A33U G59A — 2.9-fold lower, 0.000262 ± 5.4e-05 s⁻¹
- C11A U54A U55G — 6-fold lower, 0.000124 ± 1.8e-05 s⁻¹
